According to patent US20090081197A1 (PALATIN TECHNOLOGIES, published 2009):
Read-outs that look alike come from different tables or passages of the source. Starred links: 1 amine or outer side, 2 acyl side, 3 side chain; linkers in the order of their positions; H or OH if unused. Positions of bridges follow the written chain, without caps; N, C: chain ends. Non-standard residues stand in square brackets, D forms with d. No end group written: not given here. Ser(Bzl) = O-benzyl-serine, O=C([C@H](COCc1ccccc1)N[*:1])[*:2]; dPhe(4-Cl) = N[C@H](Cc1ccc(Cl)cc1)C(=O)O; 1Nal = N[C@@H](Cc1cccc2ccccc12)C(=O)O; 2Nal = N[C@@H](Cc1ccc2ccccc2c1)C(=O)O; d2Nal = N[C@H](Cc1ccc2ccccc2c1)C(=O)O; Nle = CCCC[C@H](N)C(=O)O; Ahp = NCCCCCCC(=O)O

How the values were obtained:
[1] = molecular target: T1, human melanocortin 4 receptor (human, UniProt P32245 1-332); assay: cell-based or functional assay
[2] = molecular target: T1, human melanocortin 4 receptor; assay: cell-based or functional assay; remark: listed apart in the source
[3] = molecular target: T2, MC1-R of B-16 mouse melanoma cells (mouse, UniProt Q01727 1-315); assay: radioligand competition, [I125]-NDP-α-MSH, B-16 membranes
T2 construct: whole, on cells; also called B16-F10 (MC1-R)

[4] = molecular target: T3, human MC1-R (human, UniProt Q01726 1-317); assay: radioligand competition, NDP-α-MSH, human MC1-R, normal system
T3 construct: whole, on cells; Used in separate experiments for Ki with NDP-α-MSH; the source of the membranes is not described; also called hMC1-R

[5] = molecular target: T4, human melanocortin 3 receptor (human, UniProt P41968 1-323); assay: radioligand competition, [I125]-NDP-α-MSH, hMC3-R membranes
T4 construct: whole, on cells; also called hMC3-R; MC3-R

[6] = molecular target: T1, human melanocortin 4 receptor; assay: radioligand competition, [I125]-NDP-α-MSH, hMC4-R membranes
[7] = molecular target: T5, human melanocortin 5 receptor (human, UniProt P33032 1-325); assay: radioligand competition, [I125]-NDP-α-MSH, hMC5-R membranes
T5 construct: whole, on cells; also called hMC5-R; MC5-R

[8] = molecular target: T1, human melanocortin 4 receptor; assay: cell-based or functional assay; remark: listed apart in the source
[9] = molecular target: T2, MC1-R of B-16 mouse melanoma cells; assay: radioligand competition, [I125]-NDP-α-MSH, B-16 membranes; remark: listed apart in the source
[10] = molecular target: T4, human melanocortin 3 receptor; assay: radioligand competition, [I125]-NDP-α-MSH, hMC3-R membranes; remark: listed apart in the source
[11] = molecular target: T1, human melanocortin 4 receptor; assay: radioligand competition, [I125]-NDP-α-MSH, hMC4-R membranes; remark: listed apart in the source
[12] = molecular target: T5, human melanocortin 5 receptor; assay: radioligand competition, [I125]-NDP-α-MSH, hMC5-R membranes; remark: listed apart in the source
[13] = molecular target: T1, human melanocortin 4 receptor; assay: cell-based or functional assay; remark: listed apart in the source
[14] = molecular target: T2, MC1-R of B-16 mouse melanoma cells; assay: radioligand competition, [I125]-NDP-α-MSH, B-16 membranes; remark: listed apart in the source
[15] = molecular target: T4, human melanocortin 3 receptor; assay: radioligand competition, [I125]-NDP-α-MSH, hMC3-R membranes; remark: listed apart in the source
[16] = molecular target: T1, human melanocortin 4 receptor; assay: radioligand competition, [I125]-NDP-α-MSH, hMC4-R membranes; remark: listed apart in the source
[17] = molecular target: T5, human melanocortin 5 receptor; assay: radioligand competition, [I125]-NDP-α-MSH, hMC5-R membranes; remark: listed apart in the source
[18] = molecular target: T2, MC1-R of B-16 mouse melanoma cells; assay: radioligand competition, [I125]-NDP-α-MSH, B-16 membranes; remark: listed apart in the source
[19] = molecular target: T4, human melanocortin 3 receptor; assay: radioligand competition, [I125]-NDP-α-MSH, hMC3-R membranes; remark: listed apart in the source
[20] = molecular target: T1, human melanocortin 4 receptor; assay: radioligand competition, [I125]-NDP-α-MSH, hMC4-R membranes; remark: listed apart in the source
[21] = molecular target: T5, human melanocortin 5 receptor; assay: radioligand competition, [I125]-NDP-α-MSH, hMC5-R membranes; remark: listed apart in the source
[22] = molecular target: T1, human melanocortin 4 receptor; assay: cell-based or functional assay; remark: listed apart in the source
[23] = molecular target: T2, MC1-R of B-16 mouse melanoma cells; assay: radioligand competition, [I125]-NDP-α-MSH, B-16 membranes; remark: listed apart in the source
[24] = molecular target: T4, human melanocortin 3 receptor; assay: radioligand competition, [I125]-NDP-α-MSH, hMC3-R membranes; remark: listed apart in the source
[25] = molecular target: T1, human melanocortin 4 receptor; assay: radioligand competition, [I125]-NDP-α-MSH, hMC4-R membranes; remark: listed apart in the source
[26] = molecular target: T5, human melanocortin 5 receptor; assay: radioligand competition, [I125]-NDP-α-MSH, hMC5-R membranes; remark: listed apart in the source

T2 sequence (Q01727 whole entry): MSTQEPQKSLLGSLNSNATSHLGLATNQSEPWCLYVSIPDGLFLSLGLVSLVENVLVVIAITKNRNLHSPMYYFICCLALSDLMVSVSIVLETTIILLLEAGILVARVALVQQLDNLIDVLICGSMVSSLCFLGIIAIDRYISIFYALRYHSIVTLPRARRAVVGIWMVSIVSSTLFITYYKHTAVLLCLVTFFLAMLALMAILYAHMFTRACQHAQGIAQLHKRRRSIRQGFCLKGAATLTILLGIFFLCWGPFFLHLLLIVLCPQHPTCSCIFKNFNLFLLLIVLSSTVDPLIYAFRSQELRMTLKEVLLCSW
T4 sequence (P41968 whole entry): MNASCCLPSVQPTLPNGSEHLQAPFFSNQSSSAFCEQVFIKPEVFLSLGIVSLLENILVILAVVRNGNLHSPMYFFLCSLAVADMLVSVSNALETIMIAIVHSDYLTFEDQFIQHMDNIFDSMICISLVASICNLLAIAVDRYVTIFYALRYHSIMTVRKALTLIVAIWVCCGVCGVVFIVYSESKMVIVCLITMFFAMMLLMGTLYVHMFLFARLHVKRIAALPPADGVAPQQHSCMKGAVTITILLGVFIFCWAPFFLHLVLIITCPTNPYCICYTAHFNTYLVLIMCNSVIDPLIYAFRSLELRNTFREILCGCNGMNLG
T5 sequence (P33032 whole entry): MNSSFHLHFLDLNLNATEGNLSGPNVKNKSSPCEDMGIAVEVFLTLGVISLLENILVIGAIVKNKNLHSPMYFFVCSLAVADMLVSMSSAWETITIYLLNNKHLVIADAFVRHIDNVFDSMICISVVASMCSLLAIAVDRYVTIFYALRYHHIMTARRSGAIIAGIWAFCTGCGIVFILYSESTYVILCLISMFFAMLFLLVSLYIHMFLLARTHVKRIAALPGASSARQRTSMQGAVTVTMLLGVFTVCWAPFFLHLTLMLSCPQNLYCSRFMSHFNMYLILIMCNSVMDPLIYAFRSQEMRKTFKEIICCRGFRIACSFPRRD
T1 sequence (P32245 whole entry): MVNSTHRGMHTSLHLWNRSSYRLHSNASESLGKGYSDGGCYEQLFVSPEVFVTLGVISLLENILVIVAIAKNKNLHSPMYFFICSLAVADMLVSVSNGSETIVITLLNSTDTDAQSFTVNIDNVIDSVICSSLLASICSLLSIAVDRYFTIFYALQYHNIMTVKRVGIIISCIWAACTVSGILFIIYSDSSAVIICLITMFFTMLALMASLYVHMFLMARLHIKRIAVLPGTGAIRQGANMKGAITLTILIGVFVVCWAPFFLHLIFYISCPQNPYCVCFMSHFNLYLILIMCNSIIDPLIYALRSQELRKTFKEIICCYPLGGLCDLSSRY
T3 sequence (Q01726 whole entry): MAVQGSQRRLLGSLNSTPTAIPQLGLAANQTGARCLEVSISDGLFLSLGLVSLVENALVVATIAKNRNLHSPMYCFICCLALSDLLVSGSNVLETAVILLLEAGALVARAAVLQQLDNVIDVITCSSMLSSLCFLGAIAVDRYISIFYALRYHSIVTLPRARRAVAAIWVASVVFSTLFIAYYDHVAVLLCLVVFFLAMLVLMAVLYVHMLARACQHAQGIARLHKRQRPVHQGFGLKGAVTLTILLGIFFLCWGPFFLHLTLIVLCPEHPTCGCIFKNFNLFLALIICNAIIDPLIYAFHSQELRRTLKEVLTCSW

B1: Ac-Nle-cyclo(-Asp-Trp-D-Phe-Arg-Nal 1-Lys)-NH-CH2-CH3 (peptide)
peptide: Ac-[Nle]DW[dF]R[1Nal]K-NHEt
modifications: lactam 2-7
SMILES: CCCC[C@H](NC(C)=O)C(=O)N[C@H]1CC(=O)NCCCC[C@@H](C(=O)NCC)NC(=O)[C@H](Cc2cccc3ccccc23)NC(=O)[C@H](CCCNC(=N)N)NC(=O)[C@@H](Cc2ccccc2)NC(=O)[C@H](Cc2c[nH]c3ccccc23)NC1=O
notes: also called Compound No. 38
[1]
  EC50 (nM), normal system (cAMP): 120 nM
  intrinsic activity, normal system (cAMP): 0.6
[2]
  EC50 (nM) (cAMP), High Receptor Density System: 10 nM
[3]
  Ki: 4.2 nM
[4]
  Ki: 30 nM
[5]
  Ki: 77 nM
[6]
  Ki: 9 nM
[7]
  Ki: 47 nM

B2: NH2-(CH2)6-C(=O)-Ser(Bzl)-D-Phe(4-Cl)-Arg-Trp-Asp-NH2 (peptide)
peptide: [Ahp][Ser(Bzl)][dPhe(4-Cl)]RWD-NH2
modifications: N-terminus assumed
SMILES: N=C(N)NCCC[C@H](NC(=O)[C@@H](Cc1ccc(Cl)cc1)NC(=O)[C@H](COCc1ccccc1)NC(=O)CCCCCCN)C(=O)N[C@@H](Cc1c[nH]c2ccccc12)C(=O)N[C@@H](CC(=O)O)C(N)=O
notes: also called Compound No. 13
[1]
  EC50 (nM), normal system (cAMP): 568 nM
  intrinsic activity, normal system (cAMP): 0.5
[8]
  EC50 (nM) (cAMP), High Receptor Density System: 34 nM
[9]
  Ki: 760 nM
[10]
  Ki: 180 nM
[11]
  Ki: 9 nM
[12]
  Ki: 596 nM

B3: NH2-(CH2)6-C(=O)-Ser(Bzl)-(D)Phe(4-Cl)-Arg-Trp-NH2 (peptide)
peptide: [Ahp][Ser(Bzl)][dPhe(4-Cl)]RW-NH2
modifications: N-terminus assumed
SMILES: N=C(N)NCCC[C@H](NC(=O)[C@@H](Cc1ccc(Cl)cc1)NC(=O)[C@H](COCc1ccccc1)NC(=O)CCCCCCN)C(=O)N[C@@H](Cc1c[nH]c2ccccc12)C(N)=O
notes: also called Compound No. 1
[1]
  EC50 (nM) at MC4-R in a normal system (cAMP): 296 nM
  intrinsic activity, normal system (cAMP): 0.32
[13]
  EC50 (nM) (cAMP), High Receptor Density System: 21 nM
[14]
  Ki: 351 nM
[15]
  Ki: 27 nM
[16]
  Ki: 3 nM
[17]
  Ki: 208 nM

## Ac-DW[d2Nal]R[2Nal]K-NHMe (lactam 1-6, also called Compound No. 35) [Ac-cyclo(Asp-Trp-D-Nal 2-Arg-Nal 2-Lys)-NH-CH3]
[18]
  Ki: 643 nM
[19]
  Ki: 3 nM
[20]
  Ki: 0.06 nM
[21]
  Ki: 6 nM

B4: NH2-(CH2)6-C(=O)-Ser(Bzl)-D-Phe(4-Cl)-Arg-Trp-Asp-Phe-NH2 (peptide)
peptide: [Ahp][Ser(Bzl)][dPhe(4-Cl)]RWDF-NH2
modifications: N-terminus assumed
SMILES: N=C(N)NCCC[C@H](NC(=O)[C@@H](Cc1ccc(Cl)cc1)NC(=O)[C@H](COCc1ccccc1)NC(=O)CCCCCCN)C(=O)N[C@@H](Cc1c[nH]c2ccccc12)C(=O)N[C@@H](CC(=O)O)C(=O)N[C@@H](Cc1ccccc1)C(N)=O
notes: also called Compound No. 14
[1]
  EC50, normal system (cAMP): 238 nM
  intrinsic activity, normal system (cAMP): 0.5
[22]
  EC50 (nM) (cAMP), High Receptor Density System: 141 nM
[23]
  Ki: 242 nM
[24]
  Ki: 76 nM
[25]
  Ki: 5 nM
[26]
  Ki: 405 nM
